Reference: patent US20150118286A1
Blank lines part the entries; values can stand above or below the binder they belong to.

Legend:
[1] = target: Human tyrosinase (human), P14679; assay: cell-based or functional assay
[2] = target: Mushroom tyrosinase (mushroom), C7FF04; assay: cell-based or functional assay

Human tyrosinase (human), P14679, sequence (P14679 19-529): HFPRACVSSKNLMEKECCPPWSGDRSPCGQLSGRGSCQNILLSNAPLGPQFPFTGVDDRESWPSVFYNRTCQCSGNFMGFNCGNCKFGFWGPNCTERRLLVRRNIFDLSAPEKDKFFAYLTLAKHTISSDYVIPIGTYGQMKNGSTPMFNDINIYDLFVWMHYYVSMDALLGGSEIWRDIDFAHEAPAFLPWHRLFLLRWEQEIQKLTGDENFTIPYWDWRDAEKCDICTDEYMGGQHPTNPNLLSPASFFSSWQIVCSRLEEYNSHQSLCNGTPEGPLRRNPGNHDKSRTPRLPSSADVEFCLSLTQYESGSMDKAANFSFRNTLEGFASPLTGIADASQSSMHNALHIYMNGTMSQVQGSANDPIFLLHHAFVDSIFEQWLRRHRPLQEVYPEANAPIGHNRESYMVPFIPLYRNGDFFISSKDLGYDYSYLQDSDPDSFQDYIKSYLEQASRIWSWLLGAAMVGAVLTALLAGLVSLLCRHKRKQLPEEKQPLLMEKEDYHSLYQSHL

reduction of total melanin content in MNTI cells (3 days, peptide at twice the IC50) [1]: 41%
B1: P18 peptide (peptide)
peptide: RRYWYWRR

IC50 [µM], mushroom tyrosinase inhibition (dopachrome OD 475 nm, L-tyrosine substrate) [2]: 1120 µM
B2: P15 peptide (peptide)
peptide: RRFVCC
modifications: not checked

reduction of total melanin content in MNTI cells (3 days, peptide at twice the IC50) [1]: 45%
B3: P16 peptide (peptide)
peptide: RRWWRRYY

reduction of total melanin content in MNTI cells (3 days, peptide at twice the IC50) [1]: 38%
B4: P17 peptide (peptide)
peptide: RRRYWYYR
